The values below come from article PMC2115112.

This test has as its target vimentin (rat (endogenous in glioma C6 cells)) (UniProt P31000). The test can be described thus: co-sedimentation.

Chain of vimentin (rat (endogenous in glioma C6 cells)) (P31000 whole entry): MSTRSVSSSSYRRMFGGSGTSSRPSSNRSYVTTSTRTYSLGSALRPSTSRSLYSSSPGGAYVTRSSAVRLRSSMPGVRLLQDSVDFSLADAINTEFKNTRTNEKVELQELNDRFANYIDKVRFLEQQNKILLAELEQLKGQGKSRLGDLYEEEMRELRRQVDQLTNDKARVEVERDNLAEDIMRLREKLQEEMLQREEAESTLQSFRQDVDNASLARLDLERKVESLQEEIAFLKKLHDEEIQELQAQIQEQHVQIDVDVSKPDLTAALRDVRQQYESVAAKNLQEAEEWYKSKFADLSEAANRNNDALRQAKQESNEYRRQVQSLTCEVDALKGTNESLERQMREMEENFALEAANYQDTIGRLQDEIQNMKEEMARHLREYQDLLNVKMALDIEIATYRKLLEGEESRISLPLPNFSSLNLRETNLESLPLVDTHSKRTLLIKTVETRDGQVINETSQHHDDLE

Turning to plectin (Mr 300,000), P30427 1-4687, the mass ratio of plectin to vimentin in the pelleted aggregates stood at 0.25, the mass ratio plectin/vimentin in the pellet P1 (round 1) was 0.28, the mass ratio plectin/vimentin in the pellet P2 (round 2) is 0.23 and the percent of the total plectin recovered in the pellet of the mixture was 27%. In addition, the percent of the total vimentin recovered in the pellet of the mixture was 32%.
